Measured values published in publication PMC11442470.

Biological target: GLS1 (endogenous, both KGA and GAC) (UniProt D3Z7P3)
Assay: IP of endogenous GLS1, blot PDZD8
Details: reference: wild type PDZD8; sites T527

With PDZD8 (from UniProt Q8NEN9) T527A the “binding against the reference” value was “weaker”.
